Results: the DeepSol protein solubility set

Experiment: soluble on expression in E. coli; label from the status in PepcDB or PDB records
For “MSLNEDWPTIAFLVPMDRNHEYGRNYVSSLRKAAEEHHVNAFVMNSNYDASVQASQMKIAIAKKVDGIVIWPALYGAEQPMLIQAQRAGIPVDISNSQPPEDLDTSLYHAFTGPNDQRIGELQGKELAKLLGSKGTYVYIGGTPGNAAAINRQIGLEREMANHPDVKLLGSQPGNFDKNQAQTAASALISRFGNQIDALVTPDDIIASGAAQALDAAGMAGQVKLLGHNYAPVARSLLENGSMSTTLFQSPCWDSTHALTTMMDVLAGKDVPPVSYMPLPVVTKDNLDEFTPNGCLPEGYSEPATNEGHHHHHH”, the “soluble on expression in E. coli” value was “soluble”. For “MAHHHHHHMKKASKNSNYHGLEKSLRRRGGKIKTIYEKYKDIDFQNIIDEKIKYVWNYINNIDDIISDEEFLKEEIKQKLEKKQSLKKNDDFDEIIYYNKNVKNLINIQKVRKALYHFNIKVDMEDIMHMFLYYTNQDYFLKFIQNNIYSKNYVERKMDKYKFTSININNLYINYEMFKFIFLNIDMNIEQNGQMW”, the “soluble on expression in E. coli” value was “not soluble”. For “MHEFRDYYGHRVRLAFADHPFSPSPGHVWVICRYGGRWLLTDHPRRGLEFPGGKVEEGETAAEAAAREVMEETGGIVGRLEYIGQYKVEPDIVKNIYFADIAALVERGSYLETNGPVLLEALPDDIRSDQRFSYFMKDDVLSLALAKLKQRGLID”, the “soluble on expression in E. coli” value was “not soluble”. For “LYFQGMSLEPFGARLSRAMDDRGPLCVGIDPHASLLADWGLSDDVAGLERFSRTVVEALGEHVAVFKPQSAFFERFGSRGVAVLEKTVAEARAAGALVVMDAKRGDIGSTMAAYAEAFLRKDSPLFSDALTVSPYLGYGSLRPAVELARESGAGLFVLALTSNPEGGEVQHAVRTDGRDVAATMLAHLAAENAGEEPLGSFGAVVGATLGDLSSYDLDINGPLLAPGIGAQGAAPADLPGVFGAAVRNVVPNVSRGVLRHGPDVRALRTAADRFAEEIRAAVAA”, the “soluble on expression in E. coli” value was “soluble”. In the case of “MSLSSARADRLRSHQTRVIGLILTDIANPFYTEIAAGTIDAARARGYEVFLAHTQEDPQTLRSIVDTMIARQVDGVVITVLHPDDGEVIRSLRSARIPLVQLSRRIQRVDADFVGIDDRAAASEMMEHVVTHGYQDIVTVVGPRTSSASAAREEGFIRTAEAHGIRTVSSQRISTYLSERGGYEAVEQVLARKSLPRVIVCGSDVIALGAISALRERSLNVPDDVAVTGFDGLYPGPLVELTTINQPRREMAEQSIELLTRRIEGAGGSYQSVLRAHQLRIGTTCGCPRMRPHLAAEGHHHHHH”, the “soluble on expression in E. coli” value was “not soluble”. With “SMEVFQNHFEPGVYVCAKCGYELFSSRSKYAHSSPWPAFTETIHADSVAKRPEHNRSEALKVSCGKCGNGLGHEFLNDGPKPGQSRFSIFSSSLKFVPKGKETSA” the “soluble on expression in E. coli” value was “soluble”. In the case of “VADATTLAVVGPGVMAKTITEACIAERPGITTIKIKGRSERGINAFATWALEKFPEIEVVAVGSEEDVVKDADIVIAATTTDAAGSSAFPYFKKEWLKPGALLLLPAAGRFDDAYLLDDARLVVDYMGLYEAWAEEYGPQAYQLLGIPGTHWYDLALQGKLDLAKISQIGDICSGKLPGRTNDEEIILYSVGG”, the “soluble on expression in E. coli” value was “not soluble”. For “MGGSHHHHHHGMASWPPPRCPLGVPLVLDGCGCCRVCARRLGEPCDQLHVCDASQGLVCQPGAGPGGRGALCLLAEDDSSCEVNGRLYREGETFQPHCSIRCRCEDGGFTCVPLCSEDVRLPSWDCPHPRRVEVLGKCCPEWVCGQGGGLGTQPLPAQGPQFSGLVSSLPPGVPCPEWSTAWGPCSTTCGLGMATRVSNQNRFCRLETQRRLCLSRPCPPSRGRSPQNSAF”, the “soluble on expression in E. coli” value was “not soluble”. In the case of “MSLETTVITADRMIDVANGKVVKQAAVIVTDNIITASGRLKDLTVPNEATRIDLGNATLMPGLMDMHVHLTSDATRHGYKRLEVSLPRAAITGVKHAKATLDAGFTTVRNVGAPGFADVALRDAINAGDVVGPRMFVAGPSLGVTGGHCDSNLLPYEYDNYSEGVADGPWEVRKKVRRNIKYGATVIKFCATGGVLSKGTKVGAQQYTFEEMKALIDEAHLRGLTVATHAHGTNGIKAAIKASVDSVEHVSLLDDEAIDLAKKNGTYFSMDIYVTEYILGEGEKAGILEESLNKERIVGKTQRENFEKAVKAGVNMVFGSDAEGHHHHHH”, the “soluble on expression in E. coli” value was “soluble”. In the case of “MAHHHHHHMRRTGIRRVAPWVPPPRHDVKVTMPPPPGGEVGGSFGVSIGYSDRIACTPYWKRMALSNYALRMKENATRYPMSEHRPGEYDIRYLPKPYPCTIRNRPLLEVGEPRQIPSIQIPVIFLVNLYNEEKNSWFGRKYETVYVSRQFMREELMPQRYAIYATPEAYALLGLPVVDHGIHKEIPKTPREYEKLLERQKYDEERWKYSIEYLFRKYEAGPPELLDRAEDTWDGTEVLAVSSTAGAARHGEAVQRKGAIKHRKARKIKLF”, the “soluble on expression in E. coli” value was “not soluble”. For “MGSDKIHHHHHHMRKKPLTIFSDGTLTRRENTLYFESAKGRKPLAIEGIYDIYIYGHVNITSQALHYIAQKGILIHFFNHYGYYDGTFYPRETLLSGDLIIRQAEHYLNKEKRLFLAKSFVTGGTKNMERNLKNWGIKAKLSDYLDELNDARKITEIMNVEARIRQEYYAKWDENLPEEFKIVKRTRRPPKNEMNALISFLNSRLYATIITEIYNTQLAPTISYLHEPSERRFSLSLDLSEIFKPIIADRVANRLVKKGSLKKEHFREDLNGVLLTEEGMKIVTKAYNEELQKSVKHPKIGSNVTRQRLIRLEAYKLIKHLVGVEEYKPLVAWF”, the “soluble on expression in E. coli” value was “not soluble”. In the case of “MQTSNITNHERNDSSWMSTVKSTTEVSWNKLSFCDILLKIITFGIYSPHETLAEKHSEKKLMDSFSPSLSQDKMDGEFAHANIDGISIRLCLNKGICSVFYLDGDKIQSTQLSSKEYNNLLSSLPPKQFNLGKVHTITAPVSGNFKTHKPAPEVIETAINCCTSIIPNDDYFHVKDTDFNSVWHDIYRDIRASDSNSTKIYFNNIEIPLKLIADLINELGINEFIDSKKELQMLSYNQVNKIINSNFPQQDLCFQTEKLLFTSLFQDPAFISALTSAFWQSLHITSSSVEHIYAQIMSENIENRLNFMPEQRVINNCGHIIKINAVVPKNDTAISASGGRAYEVSSSILPSHITCNGVGINKIETSYLVHAGTLPSSEGLRNAIPPESRQVSFAIISPDV”, the “soluble on expression in E. coli” value was “not soluble”. With “MSLTYHIKTIGNNIDQIALDEIGEGFLVNQVSEAESDAFICRAQPFHDYEFSKALLAIGRAGAGFNNIPIEKCASKGIVVFNAPGGNANAVKELVLSMMIFGTRNLKPANKWLTGQKGDDNTIDGAVEHGKKAFSGSEISGKTLGVIGLGNIGSKVANDAQRLGMRVIGYDPYLSIEHAWNLSHHVKRVNDLAEIFEKADYITVHTPATDETTKMLNWKNLSKCKKGVILLNYARDEITDKEAVLKAIDEGIVRFFGTDFGSEKFYHHPQVFLTPHLGGSTAEASLNCTRMALDSVQTYLKTGEIINSVNFPRVLQELNTPYRVTLINKNVPNVVAQISLAVAAENINIANIVNRGQGDYAYTLLDLDEKDEGKLAALVSRFEAADNIIRVRLIENQSLEGHHHHHH” the “soluble on expression in E. coli” value was “soluble”. With “MGHHHHHHSHMGKGPNLLALQLSDSTLADIIARLQAGQKLSGSSPFSSAFNSLSLDKESGLLMFKGDKKPRVWVVPTQLRRDLIFSVHDIPLGAHQRPEETYKKLRLLGWWPGMQEHVKDYCRSCLFCIPRNLIGSELKVIESPASVLRGQGVCNRSGTR” the “soluble on expression in E. coli” value was “not soluble”. In the case of “MSSSPTSSSSGSPSSHGHRSETEKQRRDDTNDLLNEFKKIVQKSESEKLSKEEVLFRIVKLLSGIQLHHESFSTSPGPIRSIKKIKSDREQVRRNKRVAAYRELRKFIALNNLSSSEEIDKMENLKVLEIIFEVIRGKSITCTVPCLPFPILPFLPVFPVYSPLVFNSYNQFSLYPPHMPTVQIPIVPSSSFEIDALEIEENEKDIDIVG”, the “soluble on expression in E. coli” value was “soluble”. With “MSLYKIGELSKIVNLSIETIRYYEKIRLIPKPERFNNRYKKYSEMYIYRLKIIIKAKNYGFTLHEISNFLSEVSTSSIEDIDLSSTIMNKVQQIEKECERLNYKKNQLLKFEEEINDLQCPVLNRIINEKNEGHHHHHH” the “soluble on expression in E. coli” value was “soluble”. For “KEYSHLPIKGNESNLIDTLEDAISLRVPKNRPFAVALSGGLDSSIIAYILEARLSENAHYYVVGERYPDSVLALLEHLNICLSRVHLIKPPPADELLKLITKTCHITKSYNPSIISNGLATLLLCKAVHQDGIRVMLSGEGADEFFCGYQGMYNGRNDPTEMRANLIKDLHFTELRRLDLISASFSVEARCPFLDQRVTQIAMMLDVKNLCDIPMNIGKTLLRDTFKHLLPHSIINAPKESFDITSGLQKLVIDELQKEFKSERVALRTIFEKTLANY”, the “soluble on expression in E. coli” value was “not soluble”. With “MATFVPFVTCLDTGFWNEVNKKKLNDWKLDETPKCISSQLSLHQTEGFKCHLSLSYDSLSSLESTTGLSMSGTLLLYNTIESFKMVDKSDLIRSEAEKIWESITTRKWLQNPRLLSQFFIIAFADLKKFKYYYWTCVPALVYPSEIKQEITPLSSLGADHKILFDFYRKNNFPIFLYSKQSSKMLELSELENNTNPDEICVVVADPSPVAYSAGWMVRNVLAAVAHLHPTWKHCHIISLRSADSIGIKYTWTLPSAECSADGAQNAVPKAVGWERNANDKLQPISVDLSKEFDPKILMERSVDLNLSLIKWRLHPDIQLERYSQLKVLILGAGTLGCNIARCLIGWGVRHISFLDNSTVSYNNPVRQSLSEFEDARLGRGKAETAQAAIQRIFPSIQATAHRLTVPMPGHSIDEKDVPELEKDIAKLEQLVKDHDVVFLALDSREARWLPTVLASRHKKIAISVAIGFDTYVIIRHGIGSRSESVSDVSSSDSVPYSQLSCYFCSDVTAPGNSTFDRTLDQQCTVARPGTSMIASGIAVELLSSVLQYPDPLKTPASHDDNTTVLGAAPHQIRGFLGRFQQILPSVKRFDQCVACGDAIAAQFQQNGWKFVRDVMNSPGRLEEVTGLDELQNSVNAIDIDFEDDEDF” the “soluble on expression in E. coli” value was “soluble”. For “MRLNIAPAPWPGAPVVVLSAGLGGGGGYWLAQRAALEEQYQLVSYDHNGTGENAGPLPAGYSLATMAGELFSALQAAGIARFALVGHALGALIGLQLALDRPEAVSALALVNGWLSLSPHTRRCFQVRERLLHAGGAQAWVEAQPLFLYPAEWMAARLPRLEAEDALAISHFQGKENLLKRLQALKQADFSRRASAIACPTLIISAADDLLVPASCSRVLQTAIPGSQLVEMPWGGHACNVTDADTFNTILRDGLSAMLPVARETR”, the “soluble on expression in E. coli” value was “not soluble”. With “MAQITTTDANEFSSSAEFIPMRGFSNCHLQTMLPRLFRRQVKFTPYWQRLELPDGDFVDLAWSENPAQAQHKPRLVVFHGLEGSLNSPYAHGLVEAAQKRGWLGVVMHFRGCSGEPNRMHRIYHSGETEDASWFLRWLQREFGHAPTAAVGYSLGGNMLACLLAKEGNDLPVDAAVIVSAPFMLEACSYHMEKGFSRVYQRYLLNLLKANAARKLAAYPGTLPINLAQLKSVRRIREFDDLITARIHGYADAIDYYRQCSAMPMLNRIAKPTLIIHAKDDPFMDHQVIPKPESLPPQVEYQLTEHGGHVGFIGGTLLHPQMWLESRIPDWLTTYLEAKSCLEHHHHHH” the “soluble on expression in E. coli” value was “not soluble”. For “MKVDLFDFHLPEELIAQTPLPDRAASRLMVLDKRTGAIRHETFRNIISYLNPGDCLVLNDTRVMPARLYGEKEETGGTVEVLLLKQLDGDRWETLVKPGKRVKPGTKLTFGGGKLEAVCLDTLEHGGRVLEFSYDGLFYEVLAELGEMPLPPYIKEKLDDPERYQTVYAREIGSAAAPTAGLHFTEELLDAIREKGVHIVFITLHVGLGTFRPVQVDEVEKHDMHAEFYQMSEETAETLNRVREQGGRIIAVGTTSTRTLETIAGKHNGRFVAESGWTDIFIYPGYEFKGIDGLVTNFHLPKSTLIMLVSALAGRENILHAYQVAVKERYRFFSFGDAMLII”, the “soluble on expression in E. coli” value was “not soluble”.
